± gives the standard deviation of the averaged measurements.
How the values were obtained:
Saccharomyces cerevisiae [1] = experiment: protein stability index of tFT-peptide fusion (C-terminal peptide) (PSI (0-1 scale)); higher = more stable (slower turnover); conditions: genetic background: wild type; temperature: 30 C
Saccharomyces cerevisiae [2] = experiment: as above
Experimental: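 MPS profiling in S. cerevisiae of the tFT-X12 degron library: putative degron peptides plus stable controls, 12 aa, fused to the C-terminus of a sfGFP-mCherry timer. Cells are FACS-sorted into 8 mCherry/sfGFP bins and deep-sequenced. PSI runs from 0 (unstable) to 1 (stable). Backgrounds are wild type, das1Δ and doa10Δ at 30 °C, and wild type, das1Δ, cdc34-1 and cdc53-1 at 37 °C; 2-3 technical replicates each.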

[3] = genetic background: cdc34-1, temperature: 37 C
[4] = genetic background: cdc53-1, temperature: 37 C
[5] = genetic background: das1 deletion, temperature: 30 C
[6] = genetic background: das1 deletion, temperature: 37 C
[7] = genetic background: doa10 deletion, temperature: 30 C
[8] = genetic background: wild type, temperature: 30 C
[9] = genetic background: wild type, temperature: 37 C
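Also: PSI is a weighted mean of sequencing reads over stability bins, variants kept only with over 10 reads, mCherry proximal and sfGFP distal, peptide attached via GGGS linker.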

Row | Sequence | protein stability index (Saccharomyces cerevisiae [1]) | protein stability index (Saccharomyces cerevisiae [2]; [3]) | protein stability index (Saccharomyces cerevisiae [2]; [4]) | protein stability index (Saccharomyces cerevisiae [2]; [5]) | protein stability index (Saccharomyces cerevisiae [2]; [6]) | protein stability index (Saccharomyces cerevisiae [2]; [7]) | protein stability index (Saccharomyces cerevisiae [2]; [8]) | protein stability index (Saccharomyces cerevisiae [2]; [9])
1 | WVWFGCVLGYRV | 0.484 ± 0.022 | 0.571 ± 0.022 | 0.561 ± 0.025 | 0.426 ± 0.026 | 0.566 ± 0.021 | 0.442 ± 0.039 | 0.413 ± 0.027 | 0.531 ± 0.019
2 | SPLASLRFWCFC | 0.437 ± 0.015 | 0.68 ± 0.059 | 0.768 ± 0.0088 | 0.6502 ± 0.0037 | 0.778 ± 0.018 | 0.335 ± 0.01 | 0.349 ± 0.028 | 0.592 ± 0.024
3 | VRMMYSVQVWCG | 0.0363 ± 0.036 | 0.0466 ± 0.011 | 0.138 ± 0.03 | 0.0633 ± 0.029 | 0.165 ± 0.012 | 0.02927 ± 0.00015 | 0.0222 ± 0.0046 | 0.0439 ± 0.0023
4 | TKDFVIKKTKIS | 0.169 ± 0.021 | 0.537 ± 0.017 | 0.7393 ± 0.0047 | 0.641 ± 0.019 | 0.737 ± 0.022 | 0.135 ± 0.03 | 0.159 ± 0.03 | 0.236 ± 0.028
5 | MLVLFCLCYILG | 0.341 ± 0.0068 | 0.2462 ± 0.0023 | 0.34 ± 0.013 | 0.231 ± 0.025 | 0.377 ± 0.0043 | 0.217 ± 0.013 | 0.235 ± 0.037 | 0.338 ± 0.03
6 | LAISTIQMFKRI | 0.38 ± 0.019 | 0.677 ± 0.049 | 0.718 ± 0.04 | 0.624 ± 0.017 | 0.718 ± 0.018 | 0.295 ± 0.021 | 0.327 ± 0.022 | 0.568 ± 0.038
7 | RVLILCLFFRWS | 0.347 ± 0.18 | 0.2532 ± 0.00072 | 0.404 ± 0.0096 | 0.274 ± 0.033 | 0.435 ± 0.0084 | 0.257 ± 0.0049 | 0.279 ± 0.029 | 0.397 ± 0.016
8 | VLFFLVTSSVYF | 0.269 ± 0.04 | 0.124 ± 0.036 | 0.263 ± 0.03 | 0.201 ± 0.031 | 0.37 ± 0.0049 | 0.159 ± 0.0068 | 0.187 ± 0.0095 | 0.327 ± 0.0083
9 | PRFWFYLSYSVH | 0.431 ± 0.032 | 0.429 ± 0.044 | 0.514 ± 0.012 | 0.373 ± 0.044 | 0.533 ± 0.015 | 0.3014 ± 0.0016 | 0.344 ± 0.02 | 0.493 ± 0.01
10 | SRPGRWRLYYVS | 0.401 ± 0.098 | 0.6867 ± 0.0067 | 0.802 ± 0.016 | 0.679 ± 0.0079 | 0.758 ± 0.011 | 0.38 ± 0.023 | 0.383 ± 0.022 | 0.54 ± 0.0037
11 | LILFMLLSFLTT | 0.373 ± 0.032 | 0.371 ± 0.013 | 0.409 ± 0.042 | 0.294 ± 0.028 | 0.419 ± 0.018 | 0.281 ± 0.016 | 0.293 ± 0.025 | 0.3954 ± 0.0026
12 | AFRRFLLYCRFI | 0.198 ± 0.012 | 0.395 ± 0.013 | 0.378 ± 0.0056 | 0.503 ± 0.035 | 0.607 ± 0.015 | 0.199 ± 0.019 | 0.148 ± 0.025 | 0.201 ± 0.029
13 | EWVGIFRGVSVF | 0.371 ± 0.0074 | 0.2846 ± 0.0011 | 0.293 ± 0.0067 | 0.256 ± 0.032 | 0.4158 ± 0.003 | 0.224 ± 0.02 | 0.267 ± 0.022 | 0.374 ± 0.0073
14 | ILFIVSSCGCVG | 0.471 ± 0.0064 | 0.543 ± 0.031 | 0.557 ± 0.039 | 0.445 ± 0.037 | 0.5904 ± 0.0013 | 0.443 ± 0.024 | 0.446 ± 0.015 | 0.5724 ± 0.0043
15 | SAWGQAFWCQMG | 0.4071 ± 0.00098 | 0.712 ± 0.027 | 0.7859 ± 0.0057 | 0.648 ± 0.019 | 0.764 ± 0.016 | 0.233 ± 0.016 | 0.265 ± 0.014 | 0.555 ± 0.025
16 | KAIILGNIKINF | 0.539 ± 0.16 | 0.729 ± 0.018 | 0.744 ± 0.016 | 0.6368 ± 0.0023 | 0.714 ± 0.011 | 0.638 ± 0.026 | 0.624 ± 0.018 | 0.741 ± 0.045
17 | LIFLSISFISSL | 0.295 ± 0.05 | 0.1 ± 0.0059 | 0.245 ± 0.049 | 0.168 ± 0.036 | 0.316 ± 0.028 | 0.104 ± 0.043 | 0.15 ± 0.037 | 0.286 ± 0.0096
18 | AFAFLLHRFLLV | 0.148 ± 0.017 | 0.493 ± 0.058 | 0.55 ± 0.0057 | 0.477 ± 0.018 | 0.584 ± 0.0064 | 0.103 ± 0.0047 | 0.11 ± 0.012 | 0.142 ± 0.011
19 | TFLFPLPFLFFI | 0.0963 ± 0.016 | 0.0467 ± 0.0054 | 0.0387 ± 0.0025 | 0.102 ± 0.019 | 0.119 ± 0.03 | 0.29 ± 0.014 | 0.0685 ± 0.02 | 0.101 ± 0.0099
20 | FLLLVVYVSLYS | 0.216 ± 0.1 | 0.143 ± 0.0068 | 0.207 ± 0.039 | 0.183 ± 0.033 | 0.2973 ± 0.00095 | 0.133 ± 0.0063 | 0.156 ± 0.032 | 0.224 ± 0.034

Row | Sequence | protein stability index (Saccharomyces cerevisiae [1]) | protein stability index (Saccharomyces cerevisiae [2]; [3]) | protein stability index (Saccharomyces cerevisiae [2]; [4]) | protein stability index (Saccharomyces cerevisiae [2]; [5]) | protein stability index (Saccharomyces cerevisiae [2]; [6]) | protein stability index (Saccharomyces cerevisiae [2]; [7]) | protein stability index (Saccharomyces cerevisiae [2]; [8]) | protein stability index (Saccharomyces cerevisiae [2]; [9])
21 | GSLLWSGWSTCY | 0.761 ± 0.043 | 0.768 ± 0.018 | 0.811 ± 0.011 | 0.698 ± 0.058 | 0.826 ± 0.0092 | 0.6696 ± 0.0058 | 0.693 ± 0.022 | 0.763 ± 0.0077
22 | PSPPPPRPASPS | 0.439 ± 0.023 | 0.7 ± 0.052 | 0.7492 ± 0.0073 | 0.651 ± 0.0084 | 0.72829 ± 0.00037 | 0.667 ± 0.048 | 0.652 ± 0.015 | 0.719 ± 0.0084
23 | RAFFLLYCTLWA | 0.206 ± 0.04 | 0.0997 ± 0.0085 | 0.204 ± 0.039 | 0.163 ± 0.027 | 0.266 ± 0.012 | 0.132 ± 0.016 | 0.161 ± 0.025 | 0.24 ± 0.0077
24 | TVLGRDFALSVC | 0.4599 ± 0.00056 | 0.455 ± 0.0056 | 0.4916 ± 0.004 | 0.361 ± 0.046 | 0.543 ± 0.015 | 0.308 ± 0.0071 | 0.346 ± 0.023 | 0.501 ± 0.0061
25 | RLARRGGGWGPG | 0.5 ± 0.1 | 0.681 ± 0.012 | 0.7334 ± 0.0049 | 0.657 ± 0.034 | 0.706 ± 0.022 | 0.657 ± 0.034 | 0.67 ± 0.046 | 0.7281 ± 0.00042
26 | THRAVGIGLRCC | 0.358 ± 0.025 | 0.558 ± 0.042 | 0.637 ± 0.02 | 0.496 ± 0.029 | 0.645 ± 0.0067 | 0.165 ± 0.01 | 0.186 ± 0.022 | 0.4005 ± 0.0016
27 | FCLFFFPSLFFF | 0.371 ± 0.016 | 0.57 ± 0.11 | 0.538 ± 0.024 | 0.529 ± 0.042 | 0.604 ± 0.023 | 0.333 ± 0.012 | 0.295 ± 0.026 | 0.443 ± 0.017
28 | LLMLWWARVFSG | 0.329 ± 0.0066 | 0.296 ± 0.032 | 0.395 ± 0.045 | 0.298 ± 0.015 | 0.408 ± 0.0072 | 0.209 ± 0.016 | 0.243 ± 0.036 | 0.35 ± 0.0075
29 | HCNRRNKIYWYS | 0.304 ± 0.051 | 0.6116 ± 0.00076 | 0.73 ± 0.012 | 0.689 ± 0.063 | 0.739 ± 0.051 | 0.106 ± 0.019 | 0.111 ± 0.032 | 0.189 ± 0.014
30 | WFSVIMLCYILP | 0.253 ± 0.004 | 0.204 ± 0.023 | 0.22 ± 0.028 | 0.23 ± 0.042 | 0.3397 ± 0.0018 | 0.233 ± 0.027 | 0.198 ± 0.014 | 0.248 ± 0.036
31 | VFGWWSVVLRVA | 0.109 ± 0.029 | 0.0612 ± 0.0012 | 0.0938 ± 0.009 | 0.166 ± 0.027 | 0.249 ± 0.0082 | 0.0577 ± 0.014 | 0.0694 ± 0.017 | 0.0612 ± 0.011
32 | KALFPGLLLCAF | 0.307 ± 0.014 | 0.168 ± 0.0027 | 0.188 ± 0.0038 | 0.239 ± 0.02 | 0.292 ± 0.012 | 0.204 ± 0.0091 | 0.232 ± 0.022 | 0.268 ± 0.017
33 | GVKSQLYSFVWF | 0.45 ± 0.015 | 0.6552 ± 0.0036 | 0.74 ± 0.015 | 0.633 ± 0.023 | 0.747 ± 0.013 | 0.3088 ± 0.0017 | 0.352 ± 0.018 | 0.593 ± 0.014
34 | FLSPPPFLALLP | 0.723 ± 0.023 | 0.7 ± 0.03 | 0.758 ± 0.022 | 0.675 ± 0.015 | 0.76275 ± 0.00029 | 0.691 ± 0.028 | 0.6908 ± 0.0045 | 0.717 ± 0.014
35 | AYFPSQRVHHLM | 0.333 ± 0.017 | 0.637 ± 0.046 | 0.706 ± 0.066 | 0.661 ± 0.016 | 0.765 ± 0.013 | 0.144 ± 0.0018 | 0.174 ± 0.033 | 0.374 ± 0.03
36 | FPFHSRPCLPVL | 0.518 ± 0.056 | 0.567 ± 0.0099 | 0.576 ± 0.11 | 0.475 ± 0.025 | 0.622 ± 0.041 | 0.4581 ± 0.0044 | 0.471 ± 0.012 | 0.5723 ± 0.0015
37 | SLIFRVGKFKSL | 0.137 ± 0.021 | 0.5892 ± 0.0014 | 0.6968 ± 0.0048 | 0.654 ± 0.019 | 0.738 ± 0.012 | 0.0628 ± 0.011 | 0.0746 ± 0.017 | 0.101 ± 0.0098
38 | FGCCLYFCFWGL | 0.433 ± 0.005 | 0.455 ± 0.0063 | 0.519 ± 0.011 | 0.386 ± 0.026 | 0.524 ± 0.0085 | 0.3524 ± 0.0025 | 0.372 ± 0.018 | 0.491 ± 0.016
39 | IMWCSSVSEVQW | 0.4741 ± 0.0032 | 0.538 ± 0.075 | 0.582 ± 0.0064 | 0.472 ± 0.027 | 0.518 ± 0.0069 | 0.492 ± 0.03 | 0.494 ± 0.047 | 0.5016 ± 0.0029

Reference: the supplement of paper PMC10724198
